Reference: publication PMC12152161

Columns and labels:
[1] = target: T1, full-length KIF1C(WT)−Flag−EGFP (UniProt O43896)
T1 sequence: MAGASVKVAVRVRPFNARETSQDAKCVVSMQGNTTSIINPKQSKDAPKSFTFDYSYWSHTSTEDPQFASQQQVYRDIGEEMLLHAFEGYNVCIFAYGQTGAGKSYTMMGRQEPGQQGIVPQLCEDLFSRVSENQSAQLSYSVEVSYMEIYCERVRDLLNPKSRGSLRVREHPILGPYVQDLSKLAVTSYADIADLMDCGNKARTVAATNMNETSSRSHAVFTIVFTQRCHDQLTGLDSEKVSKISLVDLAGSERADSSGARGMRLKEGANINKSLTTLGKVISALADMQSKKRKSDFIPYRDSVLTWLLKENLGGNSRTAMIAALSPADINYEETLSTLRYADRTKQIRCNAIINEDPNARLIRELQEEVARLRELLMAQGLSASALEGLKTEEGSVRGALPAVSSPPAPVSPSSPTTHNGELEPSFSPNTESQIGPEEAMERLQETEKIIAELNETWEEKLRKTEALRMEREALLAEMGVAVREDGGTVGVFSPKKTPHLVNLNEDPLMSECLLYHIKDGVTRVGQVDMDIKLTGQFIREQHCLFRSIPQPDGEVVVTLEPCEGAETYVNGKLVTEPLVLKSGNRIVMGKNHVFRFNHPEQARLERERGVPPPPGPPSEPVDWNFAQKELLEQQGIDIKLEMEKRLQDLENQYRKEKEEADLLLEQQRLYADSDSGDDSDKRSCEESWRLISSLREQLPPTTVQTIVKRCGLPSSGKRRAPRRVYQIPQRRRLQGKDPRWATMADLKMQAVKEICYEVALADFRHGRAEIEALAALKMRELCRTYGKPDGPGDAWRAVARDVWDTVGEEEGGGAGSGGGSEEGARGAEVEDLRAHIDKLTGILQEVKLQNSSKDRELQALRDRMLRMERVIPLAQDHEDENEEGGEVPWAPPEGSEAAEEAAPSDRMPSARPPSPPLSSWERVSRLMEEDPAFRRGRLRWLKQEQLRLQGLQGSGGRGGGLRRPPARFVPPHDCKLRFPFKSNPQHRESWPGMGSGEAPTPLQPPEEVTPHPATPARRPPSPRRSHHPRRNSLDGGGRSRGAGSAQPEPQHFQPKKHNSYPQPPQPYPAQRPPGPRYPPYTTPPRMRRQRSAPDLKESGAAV

[2] = target: T2, full-length KIF1C(Y757A ∙ F764A)−Flag−EGFP (UniProt O43896)
T2 sequence: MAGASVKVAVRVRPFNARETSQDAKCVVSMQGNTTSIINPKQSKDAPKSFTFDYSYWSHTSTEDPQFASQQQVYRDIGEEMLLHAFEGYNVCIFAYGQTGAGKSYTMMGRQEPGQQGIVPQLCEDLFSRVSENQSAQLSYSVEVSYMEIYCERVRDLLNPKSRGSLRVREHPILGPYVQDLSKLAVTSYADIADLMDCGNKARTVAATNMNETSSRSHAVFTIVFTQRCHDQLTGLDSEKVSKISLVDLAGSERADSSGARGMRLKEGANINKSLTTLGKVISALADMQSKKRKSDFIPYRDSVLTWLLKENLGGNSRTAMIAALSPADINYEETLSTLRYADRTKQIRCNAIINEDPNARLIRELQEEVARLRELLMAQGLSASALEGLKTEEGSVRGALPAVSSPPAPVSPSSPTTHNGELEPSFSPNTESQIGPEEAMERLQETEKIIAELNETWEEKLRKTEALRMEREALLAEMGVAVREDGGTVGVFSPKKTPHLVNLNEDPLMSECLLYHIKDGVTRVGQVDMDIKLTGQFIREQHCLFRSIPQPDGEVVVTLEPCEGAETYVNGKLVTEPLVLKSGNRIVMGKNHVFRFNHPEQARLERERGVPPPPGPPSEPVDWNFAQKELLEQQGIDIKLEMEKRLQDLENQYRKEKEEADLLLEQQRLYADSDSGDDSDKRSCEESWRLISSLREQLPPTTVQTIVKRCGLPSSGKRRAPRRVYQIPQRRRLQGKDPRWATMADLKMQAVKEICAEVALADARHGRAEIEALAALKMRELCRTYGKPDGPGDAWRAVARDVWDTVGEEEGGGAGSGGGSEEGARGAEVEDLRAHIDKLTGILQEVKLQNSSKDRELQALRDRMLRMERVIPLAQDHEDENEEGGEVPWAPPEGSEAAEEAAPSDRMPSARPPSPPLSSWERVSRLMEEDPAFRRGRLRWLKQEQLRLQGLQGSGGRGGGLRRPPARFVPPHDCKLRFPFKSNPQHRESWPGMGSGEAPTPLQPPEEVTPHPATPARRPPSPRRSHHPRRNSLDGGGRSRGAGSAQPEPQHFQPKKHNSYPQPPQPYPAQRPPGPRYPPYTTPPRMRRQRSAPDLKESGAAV

B1: full-length Hook3(V614E)−Myc−FuRed (natural protein)
chain: MFSVESLERAELCESLLTWIQTFNVDAPCQTVEDLTNGVVMAQVLQKIDPAYFDENWLNRIKTEVGDNWRLKISNLKKILKGILDYNHEILGQQINDFTLPDVNLIGEHSDAAELGRMLQLILGCAVNCEQKQEYIQAIMMMEESVQHVVMTAIQELMSKESPVSAGNDAYVDLDRQLKKTTEELNEALSAKEEIAQRCHELDMQVAALQEEKSSLLAENQVLMERLNQSDSIEDPNSPAGRRHLQLQTQLEQLQEETFRLEAAKDDYRIRCEELEKEISELRQQNDELTTLADEAQSLKDEIDVLRHSSDKVSKLEGQVESYKKKLEDLGDLRRQVKLLEEKNTMYMQNTVSLEEELRKANAARSQLETYKRQVVELQNRLSEESKKADKLDFEYKRLKEKVDSLQKEKDRLRTERDSLKETIEELRCVQAQEGQLTTQGLMPLGSQESSDSLAAEIVTPEIREKLIRLQHENKMLKLNQEGSDNEKIALLQSLLDDANLRKNELETENRLVNQRLLEVQSQVEELQKSLQDQGSKAEDSVLLKKKLEEHLEKLHEANNELQKKRAIIEDLEPRFNNSSLKIEELQEALRKKEEEMKQMEERYKKYLEKAKSEIRTLDPKQNQGAAPEIQALKNQLQERDRLFHSLEKEYEKTKSQREMEEKYIVSAWYNMGMTLHKKAAEDRLASTGSGQSFLARQRQATSSRRSYPGHVQPATAR
In the case of B1, the tail/cytoplasm ratio of Hook3−Myc−FuRed upon co-expression in RPE1 cells, 16 h post transfection (tail/cytoplasm ratio) [1] is reported as 0.7 and the tail/cytoplasm ratio of Hook3−Myc−FuRed upon co-expression in RPE1 cells, 16 h post transfection (tail/cytoplasm ratio) [2] is reported as 0.7.

B2: full-length Hook3(WT)−Myc−FuRed (natural protein)
chain: MFSVESLERAELCESLLTWIQTFNVDAPCQTVEDLTNGVVMAQVLQKIDPAYFDENWLNRIKTEVGDNWRLKISNLKKILKGILDYNHEILGQQINDFTLPDVNLIGEHSDAAELGRMLQLILGCAVNCEQKQEYIQAIMMMEESVQHVVMTAIQELMSKESPVSAGNDAYVDLDRQLKKTTEELNEALSAKEEIAQRCHELDMQVAALQEEKSSLLAENQVLMERLNQSDSIEDPNSPAGRRHLQLQTQLEQLQEETFRLEAAKDDYRIRCEELEKEISELRQQNDELTTLADEAQSLKDEIDVLRHSSDKVSKLEGQVESYKKKLEDLGDLRRQVKLLEEKNTMYMQNTVSLEEELRKANAARSQLETYKRQVVELQNRLSEESKKADKLDFEYKRLKEKVDSLQKEKDRLRTERDSLKETIEELRCVQAQEGQLTTQGLMPLGSQESSDSLAAEIVTPEIREKLIRLQHENKMLKLNQEGSDNEKIALLQSLLDDANLRKNELETENRLVNQRLLEVQSQVEELQKSLQDQGSKAEDSVLLKKKLEEHLEKLHEANNELQKKRAIIEDLEPRFNNSSLKIEELQEALRKKEEEMKQMEERYKKYLEKAKSVIRTLDPKQNQGAAPEIQALKNQLQERDRLFHSLEKEYEKTKSQREMEEKYIVSAWYNMGMTLHKKAAEDRLASTGSGQSFLARQRQATSSRRSYPGHVQPATAR
Work on B2 yielded a tail/cytoplasm ratio of Hook3−Myc−FuRed upon co-expression in RPE1 cells, 16 h post transfection (tail/cytoplasm ratio) [2] of 0.7.
